B1: ALK tyrosine kinase receptor (Homo sapiens), Q9UM73 (parent)
chain: MGAIGLLWLLPLLLSTAAVGSGMGTGQRAGSPAAGPPLQPREPLSYSRLQRKSLAVDFVVPSLFRVYARDLLLPPSSSELKAGRPEARGSLALDCAPLLRLLGPAPGVSWTAGSPAPAEARTLSRVLKGGSVRKLRRAKQLVLELGEEAILEGCVGPPGEAAVGLLQFNLSELFSWWIRQGEGRLRIRLMPEKKASEVGREGRLSAAIRASQPRLLFQIFGTGHSSLESPTNMPSPSPDYFTWNLTWIMKDSFPFLSHRSRYGLECSFDFPCELEYSPPLHDLRNQSWSWRRIPSEEASQMDLLDGPGAERSKEMPRGSFLLLNTSADSKHTILSPWMRSSSEHCTLAVSVHRHLQPSGRYIAQLLPHNEAAREILLMPTPGKHGWTVLQGRIGRPDNPFRVALEYISSGNRSLSAVDFFALKNCSEGTSPGSKMALQSSFTCWNGTVLQLGQACDFHQDCAQGEDESQMCRKLPVGFYCNFEDGFCGWTQGTLSPHTPQWQVRTLKDARFQDHQDHALLLSTTDVPASESATVTSATFPAPIKSSPCELRMSWLIRGVLRGNVSLVLVENKTGKEQGRMVWHVAAYEGLSLWQWMVLPLLDVSDRFWLQMVAWWGQGSRAIVAFDNISISLDCYLTISGEDKILQNTAPKSRNLFERNPNKELKPGENSPRQTPIFDPTVHWLFTTCGASGPHGPTQAQCNNAYQNSNLSVEVGSEGPLKGIQIWKVPATDTYSISGYGAAGGKGGKNTMMRSHGVSVLGIFNLEKDDMLYILVGQQGEDACPSTNQLIQKVCIGENNVIEEEIRVNRSVHEWAGGGGGGGGATYVFKMKDGVPVPLIIAAGGGGRAYGAKTDTFHPERLENNSSVLGLNGNSGAAGGGGGWNDNTSLLWAGKSLQEGATGGHSCPQAMKKWGWETRGGFGGGGGGCSSGGGGGGYIGGNAASNNDPEMDGEDGVSFISPLGILYTPALKVMEGHGEVNIKHYLNCSHCEVDECHMDPESHKVICFCDHGTVLAEDGVSCIVSPTPEPHLPLSLILSVVTSALVAALVLAFSGIMIVYRRKHQELQAMQMELQSPEYKLSKLRTSTIMTDYNPNYCFAGKTSSISDLKEVPRKNITLIRGLGHGAFGEVYEGQVSGMPNDPSPLQVAVKTLPEVCSEQDELDFLMEALIISKFNHQNIVRCIGVSLQSLPRFILLELMAGGDLKSFLRETRPRPSQPSSLAMLDLLHVARDIACGCQYLEENHFIHRDIAARNCLLTCPGPGRVAKIGDFGMARDIYRASYYRKGGCAMLPVKWMPPEAFMEGIFTSKTDTWSFGVLLWEIFSLGYMPYPSKSNQEVLEFVTSGGRMDPPKNCPGPVYRIMTQCWQHQPEDRPNFAIILERIEYCTQDPDVINTALPIEYGPLVEEEEKVPVRPKDPEGVPPLLVSQQAKREEERSPAAPPPLPTTSSGKAAKKPTAAEISVRVPRGPAVEGGHVNMAFSQSNPPSELHKVHGSRNKPTSLWNPTYGSWFTEKPTKKNNPIAKKEPHDRGNLGLEGSCTVPPNVATGRLPGASLLLEPSSLTANMKEVPLFRLRHFPCGNVNYGYQQQGLPLEAATAPGAGHYEDTILKSKNSMNQPGP
partner: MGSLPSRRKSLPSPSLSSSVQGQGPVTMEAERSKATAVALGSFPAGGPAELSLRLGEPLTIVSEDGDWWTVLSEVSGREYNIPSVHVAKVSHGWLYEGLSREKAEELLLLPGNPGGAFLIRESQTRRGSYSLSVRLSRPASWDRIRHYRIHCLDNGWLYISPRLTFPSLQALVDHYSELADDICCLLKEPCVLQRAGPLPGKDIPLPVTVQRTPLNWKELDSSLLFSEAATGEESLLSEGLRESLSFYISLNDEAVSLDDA
B2: ALK tyrosine kinase receptor (Homo sapiens), Q9UM73 (parent)
chain: B1 chain
partner: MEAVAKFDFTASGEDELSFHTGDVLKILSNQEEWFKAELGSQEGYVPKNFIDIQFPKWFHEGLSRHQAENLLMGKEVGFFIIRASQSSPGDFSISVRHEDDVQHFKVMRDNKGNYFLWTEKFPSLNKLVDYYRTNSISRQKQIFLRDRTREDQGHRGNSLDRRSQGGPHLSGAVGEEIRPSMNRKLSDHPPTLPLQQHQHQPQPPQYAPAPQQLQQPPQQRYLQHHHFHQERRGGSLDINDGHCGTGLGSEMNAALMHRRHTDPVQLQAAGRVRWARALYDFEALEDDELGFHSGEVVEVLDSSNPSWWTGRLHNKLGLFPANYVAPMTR
B3: ALK tyrosine kinase receptor (Homo sapiens), Q9UM73 (parent)
chain: B1 chain

Here are results for seven variants from IntAct's records for PubMed 34606829.

Variants of B1 are the subject of one assay. Particulars: with slap2_human SLA2, Q9H6Q3.
On to I1250T, for which the “effect of a mutation on the interaction” value is “decreasing interaction strength”.

With L1196M, the “effect of a mutation on the interaction” value is reported as “increasing interaction strength”.

Regarding F1245C, the “effect of a mutation on the interaction” value is “increasing interaction strength”.

The next assay covers variants of B2. The settings on record: with grap2_human GRAP2, O75791.
On to F1245C, for which the “effect of a mutation on the interaction” value is reported as “increasing interaction strength”.

As to I1250T, the “effect of a mutation on the interaction” value is listed as “decreasing interaction strength”.

Regarding L1196M, the “effect of a mutation on the interaction” value is recorded as “increasing interaction strength”.

In a further assay the parent is B3. The settings on record: with abl1_human ABL1, P00519.
abl1_human ABL1, P00519, sequence (P00519 whole entry): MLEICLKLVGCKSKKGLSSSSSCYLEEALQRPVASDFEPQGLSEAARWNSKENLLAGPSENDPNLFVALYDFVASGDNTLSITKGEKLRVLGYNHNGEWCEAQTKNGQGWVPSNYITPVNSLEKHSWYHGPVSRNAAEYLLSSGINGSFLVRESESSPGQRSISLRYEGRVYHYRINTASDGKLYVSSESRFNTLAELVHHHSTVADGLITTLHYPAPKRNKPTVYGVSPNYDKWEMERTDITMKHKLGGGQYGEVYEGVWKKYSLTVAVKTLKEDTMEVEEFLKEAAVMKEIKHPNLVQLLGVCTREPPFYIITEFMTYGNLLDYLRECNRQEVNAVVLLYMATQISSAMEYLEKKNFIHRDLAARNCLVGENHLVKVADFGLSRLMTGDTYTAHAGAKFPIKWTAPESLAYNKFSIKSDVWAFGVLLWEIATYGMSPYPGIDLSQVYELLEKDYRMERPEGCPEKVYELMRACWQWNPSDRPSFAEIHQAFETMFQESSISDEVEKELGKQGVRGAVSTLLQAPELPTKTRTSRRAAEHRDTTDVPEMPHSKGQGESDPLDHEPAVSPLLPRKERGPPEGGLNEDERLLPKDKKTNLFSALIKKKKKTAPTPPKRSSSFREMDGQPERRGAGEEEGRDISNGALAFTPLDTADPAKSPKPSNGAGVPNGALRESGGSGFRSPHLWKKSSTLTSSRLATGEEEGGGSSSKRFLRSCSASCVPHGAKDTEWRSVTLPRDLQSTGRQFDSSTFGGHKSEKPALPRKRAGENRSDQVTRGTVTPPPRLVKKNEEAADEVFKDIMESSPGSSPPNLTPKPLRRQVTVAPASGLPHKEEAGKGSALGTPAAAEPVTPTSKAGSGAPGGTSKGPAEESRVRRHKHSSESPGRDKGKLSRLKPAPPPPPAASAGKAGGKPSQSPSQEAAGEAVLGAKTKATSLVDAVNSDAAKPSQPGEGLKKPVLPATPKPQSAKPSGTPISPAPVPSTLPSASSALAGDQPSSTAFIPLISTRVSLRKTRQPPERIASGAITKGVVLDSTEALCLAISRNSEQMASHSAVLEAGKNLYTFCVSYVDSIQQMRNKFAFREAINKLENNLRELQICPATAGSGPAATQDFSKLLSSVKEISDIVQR
For I1250T, the “effect of a mutation on the interaction” value is listed as “decreasing interaction strength”.

In a further assay the parent is B3. The settings on record: with frk_human FRK.
On to I1250T, for which the “effect of a mutation on the interaction” value is on record as “decreasing interaction strength”.

The variants in the next assay derive from B3. Particulars: with sh24b_human SH2D4B.
As to I1250T, the “effect of a mutation on the interaction” value is “decreasing interaction strength”.

Variants of B3 are the subject of another assay. The settings on record: with srms_human SRMS.
As for I1250T, the “effect of a mutation on the interaction” value was “decreasing interaction strength”.

The variants in a further assay derive from B3. The settings on record: with sta5b_human STAT5B.
Turning to I1250T, the “effect of a mutation on the interaction” value is on record as “decreasing interaction strength”.

In a further assay the parent is B3. Particulars: with syk_human KARS1, Q15046.
syk_human KARS1, Q15046, sequence (Q15046 whole entry, looked up): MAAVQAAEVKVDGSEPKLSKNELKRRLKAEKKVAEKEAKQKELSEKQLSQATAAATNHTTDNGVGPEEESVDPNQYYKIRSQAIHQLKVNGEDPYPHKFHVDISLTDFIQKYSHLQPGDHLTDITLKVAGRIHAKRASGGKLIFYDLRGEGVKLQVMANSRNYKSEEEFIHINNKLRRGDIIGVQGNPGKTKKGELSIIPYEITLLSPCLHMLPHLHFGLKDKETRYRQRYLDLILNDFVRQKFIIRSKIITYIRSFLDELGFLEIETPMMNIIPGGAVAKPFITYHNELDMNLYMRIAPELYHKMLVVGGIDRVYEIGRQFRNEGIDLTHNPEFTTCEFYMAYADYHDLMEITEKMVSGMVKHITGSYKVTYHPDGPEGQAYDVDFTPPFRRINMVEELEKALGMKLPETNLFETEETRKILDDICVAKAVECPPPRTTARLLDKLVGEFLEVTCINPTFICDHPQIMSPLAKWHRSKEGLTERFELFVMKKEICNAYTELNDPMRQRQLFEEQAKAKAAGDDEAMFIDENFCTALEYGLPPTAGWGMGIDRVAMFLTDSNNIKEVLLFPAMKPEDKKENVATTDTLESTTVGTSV
On to I1250T, for which the “effect of a mutation on the interaction” value is “decreasing interaction strength”.

In the next assay the parent is B3. The settings on record: with crk_human CRK.
As for I1250T, the “effect of a mutation on the interaction” value is listed as “decreasing interaction strength”.

In a further assay the parent is B3. The settings on record: with fgr_human FGR.
On to I1250T, for which the “effect of a mutation on the interaction” value is “decreasing interaction strength”.

The variants in another assay derive from B3. Particulars: with grb14_human GRB14, Q14449.
grb14_human GRB14, Q14449, sequence (Q14449 whole entry): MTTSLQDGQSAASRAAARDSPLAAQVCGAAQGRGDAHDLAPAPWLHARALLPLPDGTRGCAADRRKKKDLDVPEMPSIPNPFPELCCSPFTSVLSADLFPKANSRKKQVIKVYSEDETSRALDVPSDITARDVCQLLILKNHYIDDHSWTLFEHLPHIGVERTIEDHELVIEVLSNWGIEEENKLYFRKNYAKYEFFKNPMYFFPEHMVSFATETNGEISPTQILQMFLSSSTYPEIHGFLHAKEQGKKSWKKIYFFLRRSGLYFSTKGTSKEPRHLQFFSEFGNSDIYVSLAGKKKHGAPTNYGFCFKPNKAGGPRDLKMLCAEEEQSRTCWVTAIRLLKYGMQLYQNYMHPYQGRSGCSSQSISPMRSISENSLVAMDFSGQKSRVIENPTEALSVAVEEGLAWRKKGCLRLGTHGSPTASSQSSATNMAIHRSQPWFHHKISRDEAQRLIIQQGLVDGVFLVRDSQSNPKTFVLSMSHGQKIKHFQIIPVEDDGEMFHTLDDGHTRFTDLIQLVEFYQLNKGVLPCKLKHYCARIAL
For I1250T, the “effect of a mutation on the interaction” value was “decreasing interaction strength”.

Variants of B3 are the subject of another assay. Particulars: with hck_human HCK.
On to I1250T, for which the “effect of a mutation on the interaction” value was “decreasing interaction strength”.

The next assay covers variants of B3. Particulars: with lyn_human LYN.
For I1250T, the “effect of a mutation on the interaction” value was “decreasing interaction strength”.

Variants of B3 are the subject of the next assay. The settings on record: with nck2_human NCK2, O43639.
nck2_human NCK2, O43639, sequence (O43639 whole entry): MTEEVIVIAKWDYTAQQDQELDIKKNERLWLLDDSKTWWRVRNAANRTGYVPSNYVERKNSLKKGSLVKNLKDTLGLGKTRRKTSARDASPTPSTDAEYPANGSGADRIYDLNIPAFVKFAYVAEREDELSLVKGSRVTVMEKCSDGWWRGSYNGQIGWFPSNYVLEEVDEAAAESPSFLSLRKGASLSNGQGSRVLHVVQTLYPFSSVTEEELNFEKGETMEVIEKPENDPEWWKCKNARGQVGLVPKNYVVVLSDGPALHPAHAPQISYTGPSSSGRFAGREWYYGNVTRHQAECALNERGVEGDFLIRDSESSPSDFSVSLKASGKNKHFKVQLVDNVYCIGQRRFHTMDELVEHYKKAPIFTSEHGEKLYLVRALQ
Turning to I1250T, the “effect of a mutation on the interaction” value is listed as “decreasing interaction strength”.

Another assay covers variants of B3. Particulars: with sh2b1_human SH2B1, Q9NRF2.
Consider I1250T, for which the “effect of a mutation on the interaction” value is “decreasing interaction strength”.

Variants of B3 are the subject of another assay. The settings on record: with shb_human SHB.
I1250T: the “effect of a mutation on the interaction” value is “decreasing interaction strength”.

The variants in the next assay derive from B3. The settings on record: with socs3_human SOCS3, O14543.
socs3_human SOCS3, O14543, sequence (O14543 whole entry): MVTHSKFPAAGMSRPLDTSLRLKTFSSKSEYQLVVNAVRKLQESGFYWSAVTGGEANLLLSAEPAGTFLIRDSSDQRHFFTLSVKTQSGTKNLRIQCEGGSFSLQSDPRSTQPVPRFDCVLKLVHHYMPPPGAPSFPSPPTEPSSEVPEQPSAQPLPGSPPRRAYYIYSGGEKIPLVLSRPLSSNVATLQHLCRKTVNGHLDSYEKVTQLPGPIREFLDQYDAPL
For I1250T, the “effect of a mutation on the interaction” value was “decreasing interaction strength”.

In another assay the parent is B3. Particulars: with stat2_human STAT2, P52630.
stat2_human STAT2, P52630, sequence (P52630 whole entry): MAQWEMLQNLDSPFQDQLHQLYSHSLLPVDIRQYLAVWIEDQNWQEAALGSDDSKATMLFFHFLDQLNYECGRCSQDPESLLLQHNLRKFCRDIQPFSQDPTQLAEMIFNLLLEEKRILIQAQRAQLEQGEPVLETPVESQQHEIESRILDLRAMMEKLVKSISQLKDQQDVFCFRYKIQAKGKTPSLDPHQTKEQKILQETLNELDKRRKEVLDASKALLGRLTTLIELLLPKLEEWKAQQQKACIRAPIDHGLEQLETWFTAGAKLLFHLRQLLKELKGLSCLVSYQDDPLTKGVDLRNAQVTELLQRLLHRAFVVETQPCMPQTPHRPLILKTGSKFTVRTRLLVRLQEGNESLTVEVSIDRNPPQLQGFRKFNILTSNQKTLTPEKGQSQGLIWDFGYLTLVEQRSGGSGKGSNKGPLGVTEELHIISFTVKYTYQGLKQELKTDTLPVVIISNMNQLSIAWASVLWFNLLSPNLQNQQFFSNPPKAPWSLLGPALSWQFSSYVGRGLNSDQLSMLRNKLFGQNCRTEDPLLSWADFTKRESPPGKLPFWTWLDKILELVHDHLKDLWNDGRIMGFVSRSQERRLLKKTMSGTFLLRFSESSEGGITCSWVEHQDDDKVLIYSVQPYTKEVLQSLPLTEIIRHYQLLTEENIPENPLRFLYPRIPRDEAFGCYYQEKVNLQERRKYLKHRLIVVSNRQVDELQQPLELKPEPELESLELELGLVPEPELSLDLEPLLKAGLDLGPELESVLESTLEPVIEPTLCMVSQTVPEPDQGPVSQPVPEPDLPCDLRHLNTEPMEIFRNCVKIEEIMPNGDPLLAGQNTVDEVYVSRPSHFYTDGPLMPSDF
For the variant I1250T, the “effect of a mutation on the interaction” value is “decreasing interaction strength”.

In a further assay the parent is B3. Particulars: with zap70_human ZAP70, P43403.
zap70_human ZAP70, P43403, sequence (P43403 whole entry): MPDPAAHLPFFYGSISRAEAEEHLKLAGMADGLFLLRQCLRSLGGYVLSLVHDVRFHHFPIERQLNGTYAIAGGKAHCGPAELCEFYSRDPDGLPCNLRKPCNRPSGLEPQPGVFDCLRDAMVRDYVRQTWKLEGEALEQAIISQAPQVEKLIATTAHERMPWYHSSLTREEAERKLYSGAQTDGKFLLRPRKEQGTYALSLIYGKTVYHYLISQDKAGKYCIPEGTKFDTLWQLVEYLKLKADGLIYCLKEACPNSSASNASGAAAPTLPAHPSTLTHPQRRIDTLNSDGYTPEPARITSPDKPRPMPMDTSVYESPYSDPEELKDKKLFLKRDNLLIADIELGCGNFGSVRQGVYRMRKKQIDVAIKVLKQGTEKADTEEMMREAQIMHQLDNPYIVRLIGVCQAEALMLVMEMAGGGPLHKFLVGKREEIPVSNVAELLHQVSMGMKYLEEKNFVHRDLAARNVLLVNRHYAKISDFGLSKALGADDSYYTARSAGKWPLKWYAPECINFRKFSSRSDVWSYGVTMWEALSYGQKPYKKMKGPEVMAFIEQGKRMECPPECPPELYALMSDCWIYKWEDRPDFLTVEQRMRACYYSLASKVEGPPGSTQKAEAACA
As for I1250T, the “effect of a mutation on the interaction” value is “decreasing interaction strength”.

In another assay the parent is B3. Particulars: with rack1_human RACK1, P63244.
On to I1250T, for which the “effect of a mutation on the interaction” value is given as “decreasing interaction strength”.
